These results are taken from patent US20190112393 (published 2019).

Test [1] deals with human IgA (human). Description: SPR, pH 5.8, 3 uM Ca, 37C. A general note: SPR reads the build-up and loss of mass on a sensor chip optically.
Test [2] addresses human IgA (human). Description: SPR, pH 5.8, 1.2 mM Ca, 37C.
Test [3] has as its target human IgA (human). The test is described as follows: SPR, pH 7.4, 3 uM Ca, 37C.
In test [4] the target is human IgA (human). The test is described as follows: SPR, pH 7.4, 1.2 mM Ca, 37C.
A further test addresses T1, human FcγRIIa type H (human, UniProt P12318).
T1 chain: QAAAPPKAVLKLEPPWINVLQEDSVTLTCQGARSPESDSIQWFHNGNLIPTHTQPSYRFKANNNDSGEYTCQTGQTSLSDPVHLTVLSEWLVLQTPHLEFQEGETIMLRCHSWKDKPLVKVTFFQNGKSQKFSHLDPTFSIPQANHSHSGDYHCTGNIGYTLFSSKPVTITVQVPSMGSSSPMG
The test is described as follows: SPR.

In test [5] the target is T2, human FcγRIa (human, UniProt P12314).
T2 chain: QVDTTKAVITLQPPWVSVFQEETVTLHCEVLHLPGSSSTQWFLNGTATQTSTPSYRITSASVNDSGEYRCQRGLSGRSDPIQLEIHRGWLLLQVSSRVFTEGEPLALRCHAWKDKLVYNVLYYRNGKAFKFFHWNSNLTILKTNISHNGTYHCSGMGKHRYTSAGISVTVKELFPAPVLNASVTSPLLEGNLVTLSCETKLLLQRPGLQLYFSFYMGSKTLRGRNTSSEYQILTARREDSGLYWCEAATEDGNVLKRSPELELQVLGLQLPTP
Description: SPR.

Test [6] deals with T2, human FcγRIa. Description: SPR.
Test [7] concerns the target T2, human FcγRIa. The test is described as follows: SPR.
A further test has as its target T3, human FcγRIIb (human, UniProt P31994).
T3 chain: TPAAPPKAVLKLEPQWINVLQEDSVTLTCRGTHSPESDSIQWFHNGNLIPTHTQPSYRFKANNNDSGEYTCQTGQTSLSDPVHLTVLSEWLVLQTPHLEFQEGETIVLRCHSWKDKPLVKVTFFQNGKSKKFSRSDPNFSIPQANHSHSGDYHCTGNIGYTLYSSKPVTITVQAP
The test is described as follows: SPR.

Test [8] concerns the target human IgE (human). The test is described as follows: SPR, pH 5.8, 3 uM Ca, 37C.
Test [9] concerns the target human IgE (human). Description: SPR, pH 5.8, 1.2 mM Ca, 37C.
The target of test [10] is human IgE (human). The test is described as follows: SPR, pH 7.4, 1.2 mM Ca, 37C.

Like-named read-outs stand apart in the source and are kept apart here.

human IgA (human), sequence (VH, as listed by the source): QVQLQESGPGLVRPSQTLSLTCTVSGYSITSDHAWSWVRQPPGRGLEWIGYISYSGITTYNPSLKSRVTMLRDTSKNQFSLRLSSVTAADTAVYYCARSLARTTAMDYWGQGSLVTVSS

B1: GA2-IgG1 (antibody, V domains shown)
VH: QVQLVQSGAEVKKPGSSVKVSCKASGGTFSSYAISWVRQAPGQGLEWMGGIIPIFGTANYAQKFQGRVTITADESTSTAYMELSSLRSEDTAVYYCARPRWETAISSDAFDIWGQGTMVTVSS
VL: DIQMTQSPSSLSASVGDRVTITCRASQSISDDLNWYQQKPGKAPKLLIYEASNLQSGVPSRFSGSGSGTDFTLTISSLQPEDFATYYCQQHSSSPLTFGQGTKVEIKR
By Kd is commonly meant the equilibrium constant for the complex coming apart. As for B1, the Kd with human IgA [1] is 5000 nM; with human IgA [2], 4000 nM; with human IgA [3], 6700 nM; with human IgA [4], 39 nM.

B2: BP438 (antibody)
chain 1: QVQLQESGPGLVKPSETLSLTCAVSGHSISHDHAWSWVRQPPGEGLEWIGFISYSGITNYNPSLQGRVTISRDNSKNTLYLQMNSLRAEDTAVYYCARSLARTTAMDYWGEGTLVTVSSASTKGPSVFPLAPSSKSTSGGTAALGCLVKDYFPEPVTVSWNSGALTSGVHTFPAVLQSSGLYSLSSVVTVPSSSLGTQTYICNVNHKPSNTKVDKKVEPKSCDKTHTCPPCPAPDLLGDDSVFLFPPKPKDTLMISRTPEVTCVVVDVAEEDGEVKFNWYVDGVEVHNAKTKPREEQYNSTYRVVSVLTVLHQDWLNGKEYKCKVSNKALPRPTEKTISKAKGQPREPQVYTLPPSRDELTKNQVSLTCLVKGFYPSDIAVEWESNGQPENNYKTTPPVLDSDGSFFLYSKLTVDKSRWQQGNVFSCSVMHEALHNHYTQESLSLSP
chain 2: not shown
Molecule B2 showed a Kd with human FcγRIIa type H of 1600 nM.

B3: BP456 (antibody)
chain 1: QVQLQESGPGLVKPSETLSLTCAVSGHSISHDHAWSWVRQPPGEGLEWIGFISYSGITNYNPSLQGRVTISRDNSKNTLYLQMNSLRAEDTAVYYCARSLARTTAMDYWGEGTLVTVSSASTKGPSVFPLAPSSKSTSGGTAALGCLVKDYFPEPVTVSWNSGALTSGVHTFPAVLQSSGLYSLSSVVTVPSSSLGTQTYICNVNHKPSNTKVDKKVEPKSCDKTHTCPPCPAPDLLGDDSVFLFPPKPKDTLMISRTPEVTCVVVDVAEEDGEVKFNWYVDGVEVHNAKTKPREEQYNSTYRVVSVLTVLHQDWLNGKEYKCKVSNKALPRPIEKTISKAKGQPREPQVYTLPPSRDELTKNQVSLTCLVKGFYPSDIAVEWESNGQPENNYKTTPMVLDSDGSFFLYSKLTVDKSRWQQGNVFSCSVMHEALHNHYTQESLSLSP
chain 2: not shown
B3 gave an equilibrium dissociation constant (Kd) with human FcγRIa [5] of 0.6 nM. That is a sub-nanomolar value.

B4: BP267 (antibody)
chain 1: QVQLQESGPGLVKPSETLSLTCAVSGHSISHDHAWSWVRQPPGEGLEWIGFISYSGITNYNPSLQGRVTISRDNSKNTLYLQMNSLRAEDTAVYYCARSLARTTAMDYWGEGTLVTVSSASTKGPSVFPLAPSSKSTSGGTAALGCLVKDYFPEPVTVSWNSGALTSGVHTFPAVLQSSGLYSLSSVVTVPSSSLGTQTYICNVNHKPSNTKVDKKVEPKSCDKTHTCPPCPAPDLLGDDSVFLFPPKPKDTLMISRTPEVTCVVVDVSEEDGEVKFNWYVDGVEVHNAKTKPREEQYNSTYRVVSVLTVLHQDWLNGKEYKCKVSNKALPAPIEKTISKAKGQPREPQVYTLPPSRDELTKNQVSLTCLVKGFYPSDIAVEWESNGQPENNYKTTPPVLDSDGSFFLYSKLTVDKSRWQQGNVFSCSVMHEALHNHYTQESLSLSP
chain 2: not shown
Molecule B4 displayed a Kd with human FcγRIa [6] of 4 nM. In other words, the single-digit nanomolar range.

B5: BP447 (antibody)
chain 1: QVQLQESGPGLVKPSETLSLTCAVSGHSISHDHAWSWVRQPPGEGLEWIGFISYSGITNYNPSLQGRVTISRDNSKNTLYLQMNSLRAEDTAVYYCARSLARTTAMDYWGEGTLVTVSSASTKGPSVFPLAPSSKSTSGGTAALGCLVKDYFPEPVTVSWNSGALTSGVHTFPAVLQSSGLYSLSSVVTVPSSSLGTQTYICNVNHKPSNTKVDKKVEPKSCDKTHTCPPCPAPDLLGDDSVFLFPPKPKDTLMISRTPEVTCVVVDVAEEDGEVKFNWYVDGVEVHNAKTKPREEQYNSTYRVVSVLTVLHQDWLNGKEYKCKVSNKALPRPIEKTISKAKGQPREPQVYTLPPSRDELTKNQVSLTCLVKGFYPSDIAVEWESNGQPENNYKTTPAVLDSDGSFFLYSKLTVDKSRWQQGNVFSCSVMHEALHNHYTQESLSLSP
chain 2: not shown
Take B5: in the test with human FcγRIa [5], the Kd was found to be 0.9 nM.

B6: BP384 (antibody)
chain 1: QVQLQESGPGLVKPSETLSLTCAVSGHSISHDHAWSWVRQPPGEGLEWIGFISYSGITNYNPSLQGRVTISRDNSKNTLYLQMNSLRAEDTAVYYCARSLARTTAMDYWGEGTLVTVSSASTKGPSVFPLAPSSKSTSGGTAALGCLVKDYFPEPVTVSWNSGALTSGVHTFPAVLQSSGLYSLSSVVTVPSSSLGTQTYICNVNHKPSNTKVDKKVEPKSCDKTHTCPPCPAPDLLGDDSVFLFPPKPKDTLMISRTPEVTCVVVDVSDEDGEVKFNWYVDGVEVHNAKTKPREEQDNSTYRVVSVLTVLHQDWLNGKEYKCKVSNKALPRPIERTISKAKGQPREPQVYTLPPSRDELTKNQVSLTCLVKGFYPSDIAVEWESNGQPENNYKTTPPVLDSDGSFFLYSKLTVDKSRWQQGNVFSCSVMHEALHNHYTQESLSLSP
chain 2: not shown
In the test with human FcγRIa [7], B6 came in with a Kd of 3 nM.

B7: BP468 (antibody)
chain 1: QVQLQESGPGLVKPSETLSLTCAVSGHSISHDHAWSWVRQPPGEGLEWIGFISYSGITNYNPSLQGRVTISRDNSKNTLYLQMNSLRAEDTAVYYCARSLARTTAMDYWGEGTLVTVSSASTKGPSVFPLAPSSKSTSGGTAALGCLVKDYFPEPVTVSWNSGALTSGVHTFPAVLQSSGLYSLSSVVTVPSSSLGTQTYICNVNHKPSNTKVDKKVEPKSCDKTHTCPPCPAPDLLGDDSVFLFPPKPKDTLMISRTPEVTCVVVDVSDEDGEVKFNWYVDGVEVHNAKTKPREEQDNSTYRVVSVLTVLHQDWLNGKEYKCKVSNKALPRPIETTISKAKGQPREPQVYTLPPSRDELTKNQVSLTCLVKGFYPSDIAVEWESNGQPENNYKTTPPVLDSDGSFFLYSKLTVDKSRWQQGNVFSCSVMHEALHNHYTQESLSLSP
chain 2: not shown
Regarding B7, the Kd in the test with human FcγRIIb is 40 nM.

B8: 278-IgG1 (clone 278) (antibody, V domains shown)
VH: QSLEESGGRLVTPGTPLTLTCTASGFSLSSYHMSWVRQAPGKGLEWIGVINSAGNTYYASWAKGRFTVSKTSTTVDLNLTSLTTEDTATYFCARYVFSSGSHDIWGPGTLVTVSS
VL: AYDMTQTPASVEVAVGGTVTIKCQASQSIGSWLAWYQQKPGQPPKELIYGTSTLESGVPSRFIGSGSGTEFTLTISGVECADAATYYCQQGYSEDNIDNAFGGGTEVVVKR
In the case of B8, the Kd with human IgE [8] came out at 3900 nM; with human IgE [9], 2000 nM; in the test with human IgE [10], 2.4 nM.
